From the supplement of paper PMC11316812
± gives the standard deviation of the averaged measurements.

How the values were obtained:
hTERT-HMEC = experiment: percentage of EdU-negative (G0-arrested) nuclei per well, 72 h; higher = more G0 arrest; settings: reference: sequence is the full UniProt precursor, the tested protein was the secreted form or ectodomain
MCF7 = experiment: as above; settings: reference: sequence is the full UniProt precursor, the tested protein was the secreted form or ectodomain
[1] = protein concentration 0.0225 µM
[2] = protein concentration 0.0214286 µM
[3] = protein concentration 0.214286 µM
[4] = protein concentration 0.0145714 µM
[5] = protein concentration 0.145714 µM
[6] = protein concentration 0.01503 µM
[7] = protein concentration 0.1503 µM
[8] = protein concentration 0.0065 µM
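Note: secreted proteins added to cultured cells, EdU pulse at the end, nuclei found by Hoechst imaging, EdU status from nuclear versus surrounding ring intensity ratio, PBS as neutral control.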

| Sequence | percentage of EdU-negative (hTERT-HMEC; [1]) | percentage of EdU-negative (hTERT-HMEC; protein concentration 0.225 µM) | percentage of EdU-negative (MCF7; [1]) | percentage of EdU-negative (MCF7; protein concentration 0.225 µM) | also measured |
| --- | --- | --- | --- | --- | --- |
| MKMWLLVSHLVIISITTCLAEFTWYRRYGHGVSEEDKGFGPIFEEQPINTIYPEESLEGKVSLNCRARASPFPVYKWRMNNGDVDLTSDRYSMVGGNLVINNPDKQKDAGIYYCLASNNYGMVRSTEATLSFGYLDPFPPEERPEVRVKEGKGMVLLCDPPYHFPDDLSYRWLLNEFPVFITMDKRRFVSQTNGNLYIANVEASDKGNYSCFVSSPSITKSVFSKFIPLIPIPERTTKPYPADIVVQFKDVYALMGQNVTLECFALGNPVPDIRWRKVLEPMPSTAEISTSGAVLKIFNIQLEDEGIYECEAENIRGKDKHQARIYVQAFPEWVEHINDTEVDIGSDLYWPCVATGKPIPTIRWLKNGYAYHKGELRLYDVTFENAGMYQCIAENTYGAIYANAELKILALAPTFEMNPMKKKILAAKGGRVIIECKPKAAPKPKFSWSKGTEWLVNSSRILIWEDGSLEINNITRNDGGIYTCFAENNRGKANSTGTLVITDPTRIILAPINADITVGENATMQCAASFDPALDLTFVWSFNGYVIDFNKENIHYQRNFMLDSNGELLIRNAQLKHAGRYTCTAQTIVDNSSASADLVVRGPPGPPGGLRIEDIRATSVALTWSRGSDNHSPISKYTIQTKTILSDDWKDAKTDPPIIEGNMEAARAVDLIPWMEYEFRVVATNTLGRGEPSIPSNRIKTDGAAPNVAPSDVGGGGGRNRELTITWAPLSREYHYGNNFGYIVAFKPFDGEEWKKVTVTNPDTGRYVHKDETMSPSTAFQVKVKAFNNKGDGPYSLVAVINSAQDAPSEAPTEVGVKVLSSSEISVHWEHVLEKIVESYQIRYWAAHDKEEAANRVQVTSQEYSARLENLLPDTQYFIEVGACNSAGCGPPSDMIEAFTKKAPPSQPPRIISSVRSGSRYIITWDHVVALSNESTVTGYKVLYRPDGQHDGKLYSTHKHSIEVPIPRDGEYVVEVRAHSDGGDGVVSQVKISGAPTLSPSLLGLLLPAFGILVYLEF | 5.11 ± 0.28% | 5.87 ± 0.46% | 24.5 ± 1.2% | 26.2 ± 0.55% |  |
| MGPWSRSLSALLLLLQVSSWLCQEPEPCHPGFDAESYTFTVPRRHLERGRVLGRVNFEDCTGRQRTAYFSLDTRFKVGTDGVITVKRPLRFHNPQIHFLVYAWDSTYRKFSTKVTLNTVGHHHRPPPHQASVSGIQAELLTFPNSSPGLRRQKRDWVIPPISCPENEKGPFPKNLVQIKSNKDKEGKVFYSITGQGADTPPVGVFIIERETGWLKVTEPLDRERIATYTLFSHAVSSNGNAVEDPMEILITVTDQNDNKPEFTQEVFKGSVMEGALPGTSVMEVTATDADDDVNTYNAAIAYTILSQDPELPDKNMFTINRNTGVISVVTTGLDRESFPTYTLVVQAADLQGEGLSTTATAVITVTDTNDNPPIFNPTTYKGQVPENEANVVITTLKVTDADAPNTPAWEAVYTILNDDGGQFVVTTNPVNNDGILKTAKGLDFEAKQQYILHVAVTNVVPFEVSLTTSTATVTVDVLDVNEAPIFVPPEKRVEVSEDFGVGQEITSYTAQEPDTFMEQKITYRIWRDTANWLEINPDTGAISTRAELDREDFEHVKNSTYTALIIATDNGSPVATGTGTLLLILSDVNDNAPIPEPRTIFFCERNPKPQVINIIDADLPPNTSPFTAELTHGASANWTIQYNDPTQESIILKPKMALEVGDYKINLKLMDNQNKDQVTTLEVSVCDCEGAAGVCRKAQPVEAGLQIPAILGILGGILALLILILLLLLFLRRRAVVKEPLLPPEDDTRDNVYYYDEEGGGEEDQDFDLSQLHRGLDARPEVTRNDVAPTLMSVPRYLPRPANPDEIGNFIDENLKAADTDPTAPPYDSLLVFDYEGSGSEAASLSSLNSSESDKDQDYDYLNEWGNRFKKLADMYGGGEDD | 4.93 ± 0.37% | 23.4 ± 1.1% | 26.2 ± 3.6% | 28.91 ± 0.16% | percentage of EdU-negative (hTERT-HMEC; [2]): 5.09 ± 0.58%; percentage of EdU-negative (hTERT-HMEC; [3]): 6.74 ± 0.63%; percentage of EdU-negative (MCF7; [2]): 23.8 ± 3.6%; percentage of EdU-negative (MCF7; [3]): 26.8 ± 1.9% |
| MHQMNAKMHFRFVFALLIVSFNHDVLGKNLKYRIYEEQRVGSVIARLSEDVADVLLKLPNPSTVRFRAMQRGNSPLLVVNEDNGEISIGATIDREQLCQKNLNCSIEFDVITLPTEHLQLFHIEVEVLDINDNSPQFSRSLIPIEISESAAVGTRIPLDSAFDPDVGENSLHTYSLSANDFFNIEVRTRTDGAKYAELIVVRELDRELKSSYELQLTASDMGVPQRSGSSILKISISDSNDNSPAFEQQSYIIQLLENSPVGTLLLDLNATDPDEGANGKIVYSFSSHVSPKIMETFKIDSERGHLTLFKQVDYEITKSYEIDVQAQDLGPNSIPAHCKIIIKVVDVNDNKPEININLMSPGKEEISYIFEGDPIDTFVALVRVQDKDSGLNGEIVCKLHGHGHFKLQKTYENNYLILTNATLDREKRSEYSLTVIAEDRGTPSLSTVKHFTVQINDINDNPPHFQRSRYEFVISENNSPGAYITTVTATDPDLGENGQVTYTILESFILGSSITTYVTIDPSNGAIYALRIFDHEEVSQITFVVEARDGGSPKQLVSNTTVVLTIIDENDNVPVVIGPALRNNTAEITIPKGAESGFHVTRIRAIDRDSGVNAELSCAIVAGNEENIFIIDPRSCDIHTNVSMDSVPYTEWELSVIIQDKGNPQLHTKVLLKCMIFEYAESVTSTAMTSVSQASLDVSMIIIISLGAICAVLLVIMVLFATRCNREKKDTRSYNCRVAESTYQHHPKRPSRQIHKGDITLVPTINGTLPIRSHHRSSPSSSPTLERGQMGSRQSHNSHQSLNSLVTISSNHVPENFSLELTHATPAVEQVSQLLSMLHQGQYQPRPSFRGNKYSRSYRYALQDMDKFSLKDSGRGDSEAGDSDYDLGRDSPIDRLLGEGFSDLFLTDGRIPAAMRLCTEECRVLGHSDQCWMPPLPSPSSDYRSNMFIPGEEFPTQPQQQHPHQSLEDDAQPADSGEKKKSFSTFGKDSPNDEDTGDTSTSSLLSEMSSVFQRLLPPSLDTYSECSEVDRSNSLERRKGPLPAKTVGYPQGVAAWAASTHFQNPTTNCGPPLGTHSSVQPSSKWLPAMEEIPENYEEDDFDNVLNHLNDGKHELMDASELVAEINKLLQDVRQS [Q9HCL0] | 3.86 ± 0.13% | 11.6 ± 1.6% | 28.4 ± 2% | 32.5 ± 0.58% |  |
| MTTQLRVVHLLPLLLACFVQTSPKQEKMKMDCHKDEKGTIYDYEAIALNKNEYVSFKQYVGKHILFVNVATYCGLTAQYPELNALQEELKPYGLVVLGFPCNQFGKQEPGDNKEILPGLKYVRPGGGFVPSFQLFEKGDVNGEKEQKVFSFLKHSCPHPSEILGTFKSISWDPVKVHDIRWNFEKFLVGPDGIPVMRWSHRATVSSVKTDILAYLKQFKTK | 5.29 ± 0.31% | 7.84 ± 0.53% | 26.1 ± 1.7% | 27.7 ± 0.58% |  |
| MLGPCMLLLLLLLGLRLQLSLGIIPVEEENPDFWNREAAEALGAAKKLQPAQTAAKNLIIFLGDGMGVSTVTAARILKGQKKDKLGPEIPLAMDRFPYVALSKTYNVDKHVPDSGATATAYLCGVKGNFQTIGLSAAARFNQCNTTRGNEVISVMNRAKKAGKSVGVVTTTRVQHASPAGTYAHTVNRNWYSDADVPASARQEGCQDIATQLISNMDIDVILGGGRKYMFRMGTPDPEYPDDYSQGGTRLDGKNLVQEWLAKRQGARYVWNRTELMQASLDPSVTHLMGLFEPGDMKYEIHRDSTLDPSLMEMTEAALRLLSRNPRGFFLFVEGGRIDHGHHESRAYRALTETIMFDDAIERAGQLTSEEDTLSLVTADHSHVFSFGGYPLRGSSIFGLAPGKARDRKAYTVLLYGNGPGYVLKDGARPDVTESESGSPEYRQQSAVPLDEETHAGEDVAVFARGPQAHLVHGVQEQTFIAHVMAFAACLEPYTACDLAPPAGTTDAAHPGRSVVPALLPLLAGTLLLLETATAP | 5.09 ± 0.15% | 5.14 ± 0.97% | 27.28 ± 0.045% | 29.68 ± 0.2% |  |
| MNPTLGLAIFLAVLLTVKGLLKPSFSPRNYKALSEVQGWKQRMAAKELARQNMDLGFKLLKKLAFYNPGRNIFLSPLSISTAFSMLCLGAQDSTLDEIKQGFNFRKMPEKDLHEGFHYIIHELTQKTQDLKLSIGNTLFIDQRLQPQRKFLEDAKNFYSAETILTNFQNLEMAQKQINDFISQKTHGKINNLIENIDPGTVMLLANYIFFRARWKHEFDPNVTKEEDFFLEKNSSVKVPMMFRSGIYQVGYDDKLSCTILEIPYQKNITAIFILPDEGKLKHLEKGLQVDTFSRWKTLLSRRVVDVSVPRLHMTGTFDLKKTLSYIGVSKIFEEHGDLTKIAPHRSLKVGEAVHKAELKMDERGTEGAAGTGAQTLPMETPLVVKIDKPYLLLIYSEKIPSVLFLGKIVNPIGK [Q8IW75] |  |  |  |  | percentage of EdU-negative (hTERT-HMEC; [4]): 6.15 ± 0.62%; percentage of EdU-negative (hTERT-HMEC; [5]): 15.6 ± 0.67%; percentage of EdU-negative (MCF7; [4]): 26.6 ± 0.27%; percentage of EdU-negative (MCF7; [5]): 29.1 ± 1.5% |
| MLPCASCLPGSLLLWALLLLLLGSASPQDSEEPDSYTECTDGYEWDPDSQHCRDVNECLTIPEACKGEMKCINHYGGYLCLPRSAAVINDLHGEGPPPPVPPAQHPNPCPPGYEPDDQDSCVDVDECAQALHDCRPSQDCHNLPGSYQCTCPDGYRKIGPECVDIDECRYRYCQHRCVNLPGSFRCQCEPGFQLGPNNRSCVDVNECDMGAPCEQRCFNSYGTFLCRCHQGYELHRDGFSCSDIDECSYSSYLCQYRCINEPGRFSCHCPQGYQLLATRLCQDIDECESGAHQCSEAQTCVNFHGGYRCVDTNRCVEPYIQVSENRCLCPASNPLCREQPSSIVHRYMTITSERSVPADVFQIQATSVYPGAYNAFQIRAGNSQGDFYIRQINNVSAMLVLARPVTGPREYVLDLEMVTMNSLMSYRASSVLRLTVFVGAYTF |  |  |  |  | percentage of EdU-negative (hTERT-HMEC; [6]): 4.54 ± 0.11%; percentage of EdU-negative (hTERT-HMEC; [7]): 7.23 ± 0.73%; percentage of EdU-negative (MCF7; [6]): 23.73 ± 0.068%; percentage of EdU-negative (MCF7; [7]): 33 ± 1.2% |
| MVGTKAWVFSFLVLEVTSVLGRQTMLTQSVRRVQPGKKNPSIFAKPADTLESPGEWTTWFNIDYPGGKGDYERLDAIRFYYGDRVCARPLRLEARTTDWTPAGSTGQVVHGSPREGFWCLNREQRPGQNCSNYTVRFLCPPGSLRRDTERIWSPWSPWSKCSAACGQTGVQTRTRICLAEMVSLCSEASEEGQHCMGQDCTACDLTCPMGQVNADCDACMCQDFMLHGAVSLPGGAPASGAAIYLLTKTPKLLTQTDSDGRFRIPGLCPDGKSILKITKVKFAPIVLTMPKTSLKAATIKAEFVRAETPYMVMNPETKARRAGQSVSLCCKATGKPRPDKYFWYHNDTLLDPSLYKHESKLVLRKLQQHQAGEYFCKAQSDAGAVKSKVAQLIVIASDETPCNPVPESYLIRLPHDCFQNATNSFYYDVGRCPVKTCAGQQDNGIRCRDAVQNCCGISKTEEREIQCSGYTLPTKVAKECSCQRCTETRSIVRGRVSAADNGEPMRFGHVYMGNSRVSMTGYKGTFTLHVPQDTERLVLTFVDRLQKFVNTTKVLPFNKKGSAVFHEIKMLRRKKPITLEAMETNIIPLGEVVGEDPMAELEIPSRSFYRQNGEPYIGKVKASVTFLDPRNISTATAAQTDLNFINDEGDTFPLRTYGMFSVDFRDEVTSEPLNAGKVKVHLDSTQVKMPEHISTVKLWSLNPDTGLWEEEGDFKFENQRRNKREDRTFLVGNLEIRERRLFNLDVPESRRCFVKVRAYRSERFLPSEQIQGVVISVINLEPRTGFLSNPRAWGRFDSVITGPNGACVPAFCDDQSPDAYSAYVLASLAGEELQAVESSPKFNPNAIGVPQPYLNKLNYRRTDHEDPRVKKTAFQISMAKPRPNSAEESNGPIYAFENLRACEEAPPSAAHFRFYQIEGDRYDYNTVPFNEDDPMSWTEDYLAWWPKPMEFRACYIKVKIVGPLEVNVRSRNMGGTHRQTVGKLYGIRDVRSTRDRDQPNVSAACLEFKCSGMLYDQDRVDRTLVKVIPQGSCRRASVNPMLHEYLVNHLPLAVNNDTSEYTMLAPLDPLGHNYGIYTVTDQDPRTAKEIALGRCFDGTSDGSSRIMKSNVGVALTFNCVERQVGRQSAFQYLQSTPAQSPAAGTVQGRVPSRRQQRASRGGQRQGGVVASLRFPRVAQQPLIN |  |  |  |  | percentage of EdU-negative (hTERT-HMEC; [8]): 4.85 ± 0.48%; percentage of EdU-negative (hTERT-HMEC; protein concentration 0.065 µM): 4.77 ± 1%; percentage of EdU-negative (MCF7; [8]): 25.3 ± 0.34%; percentage of EdU-negative (MCF7; protein concentration 0.065 µM): 25.9 ± 2% |
